Consider five molecules from patent US7250195B1, “Molecular plasma deposition of colloidal materials” (Ionic Fusion Corporation, priority 2006, dated 2007).

≈ marks a conversion by molar mass, not a printed value.

For data set [1] the following is noted: cited from earlier work.
Data set [2] is described as follows: activity of the catalase colloidal suspension before deposition. It is filed as biochemical, bovine. The conditions noted are these: colloidal suspension in water with 0.1% thymol, protein 33 mg/ml. As for the experimental part:
25 ml of a 2× crystallized bovine liver catalase (Sigma C100-58MG; 056K7010) colloidal suspension in water with 0.1% thymol was prepared. Protein concentration was 33 mg/ml with an activity of 4.1×10^4 U/ml.

Data set [3] can be described thus: catalysis of 5% hydrogen peroxide solution by plasma-deposited catalase coating. The class given is biochemical, bovine. The conditions noted are these: for catalytic activity after molecular plasma deposition: deposited 10 min on aluminum oxide disk, placed in 5% hydrogen peroxide. The text has this: Using the apparatus illustrated in FIG. 2, the high voltage power supply was attached to a 304 stainless steel, 18 gauge needle set at −5000V. The substrate was an aluminum oxide disk ¼″ thick by 1.5″ in diameter, having an area of approximately 11 sq cm and set at a potential of 5000 V. The substrate was centered and placed 5 cm from the hole in the chamber. The chamber was pumped to 40 mTorr and the flow of the colloidal suspension initiated. The deposition onto the substrate was allowed to proceed for 10 minutes. At the end of the deposition process, the substrate was removed from the chamber and the sample was placed in a 5% solution of hydrogen peroxide.
The deposition was repeated twice under the same conditions, except that after the substrate was removed from the chamber, the samples were placed in an ultrasonic water bath for 10 min. Additionally, one of the samples was maintained at 10° C. for 72 hr after removal from the bath.

As to `NCCCC[C@H](N)C(=O)O` [Lysine], the “water solubility (in words)” value in data set [1] is “highly water soluble”.

For `Nc1ncnc2nc[nH]c12` [adenine], the water solubility in data set [1] is 500 µg/mL (≈ 3.7 mM).

For `Nc1cc[nH]c(=O)n1` [cytosine], the water solubility result in data set [1] is listed as “insoluble”.

Consider `Nc1nc2nc[nH]c2c(=O)[nH]1` [guanine], for which the water solubility result in data set [1] is on record as “insoluble”.

B1: catalase: 2× crystallized bovine liver catalase (Sigma C100-58MG; 056K7010), a polypeptide enzyme (protein, UniProt P00432 2-527, looked up)
Catalase: ADNRDPASDQMKHWKEQRAAQKPDVLTTGGGNPVGDKLNSLTVGPRGPLLVQDVVFTDEMAHFDRERIPERVVHAKGAGAFGYFEVTHDITRYSKAKVFEHIGKRTPIAVRFSTVAGESGSADTVRDPRGFAVKFYTEDGNWDLVGNNTPIFFIRDALLFPSFIHSQKRNPQTHLKDPDMVWDFWSLRPESLHQVSFLFSDRGIPDGHRHMNGYGSHTFKLVNANGEAVYCKFHYKTDQGIKNLSVEDAARLAHEDPDYGLRDLFNAIATGNYPSWTLYIQVMTFSEAEIFPFNPFDLTKVWPHGDYPLIPVGKLVLNRNPVNYFAEVEQLAFDPSNMPPGIEPSPDKMLQGRLFAYPDTHRHRLGPNYLQIPVNCPYRARVANYQRDGPMCMMDNQGGAPNYYPNSFSAPEHQPSALEHRTHFSGDVQRFNSANDDNVTQVRTFYLKVLNEEQRKRLCENIAGHLKDAQLFIQKKAVKNFSDVHPEYGSRIQALLDKYNEEKPKNAVHTYVQHGSHLSAREKANL
On to B1, for which the activity of suspension in data set [2] is reported as 4.1×10^4 U/ml. The “catalytic activity after deposition and ultrasonic water bath” value in data set [3] (coated sample in ultrasonic water bath 10 min, then 5% hydrogen peroxide) was “produced bubbling of oxygen from the surface of the substrate”. In addition, the “catalytic activity after molecular plasma deposition” value in data set [3] was “producing bubbling of oxygen from the surface”; in data set [3] (listed as Catalase) it was “without loss of catalytic activity”. In addition, in data set [3] (ultrasonic water bath 10 min, then 10° C. for 72 hr, then 5% hydrogen peroxide), the “catalytic activity after deposition, ultrasonic water bath and storage” value is reported as “produced bubbling of oxygen from the surface of the substrate”.
